Laboratory results taken from article PMC6666309 (Biochemistry, 2019).

B1: full-length progranulin (natural protein, human, UniProt P28799 18-593, looked up)
chain: TRCPDGQFCPVACCLDPGGASYSCCRPLLDKWPTTLSRHLGGPCQVDAHCSAGHSCIFTVSGTSSCCPFPEAVACGDGHHCCPRGFHCSADGRSCFQRSGNNSVGAIQCPDSQFECPDFSTCCVMVDGSWGCCPMPQASCCEDRVHCCPHGAFCDLVHTRCITPTGTHPLAKKLPAQRTNRAVALSSSVMCPDARSRCPDGSTCCELPSGKYGCCPMPNATCCSDHLHCCPQDTVCDLIQSKCLSKENATTDLLTKLPAHTVGDVKCDMEVSCPDGYTCCRLQSGAWGCCPFTQAVCCEDHIHCCPAGFTCDTQKGTCEQGPHQVPWMEKAPAHLSLPDPQALKRDVPCDNVSSCPSSDTCCQLTSGEWGCCPIPEAVCCSDHQHCCPQGYTCVAEGQCQRGSEIVAGLEKMPARRASLSHPRDIGCDQHTSCPVGQTCCPSLGGSWACCQLPHAVCCEDRQHCCPAGYTCNVKARSCEKEVVSAQPATFLARSPHVGVKDVECGEGHFCHDNQTCCRDNRQGWACCPYRQGVCCADRRHCCPAGFRCAARGTKCLRREAPRWDAPLRDPALRQLL
B2: pro-cathepsin D (enzyme)
chain: not shown
modifications: fluorescently labelled in the MST assay (dye and site not stated)

Key:
pro-cathepsin D = target: B2; test: cell-based or functional assay
full-length progranulin = target: B1; test: MST

Chain of pro-cathepsin D (P07339 21-412): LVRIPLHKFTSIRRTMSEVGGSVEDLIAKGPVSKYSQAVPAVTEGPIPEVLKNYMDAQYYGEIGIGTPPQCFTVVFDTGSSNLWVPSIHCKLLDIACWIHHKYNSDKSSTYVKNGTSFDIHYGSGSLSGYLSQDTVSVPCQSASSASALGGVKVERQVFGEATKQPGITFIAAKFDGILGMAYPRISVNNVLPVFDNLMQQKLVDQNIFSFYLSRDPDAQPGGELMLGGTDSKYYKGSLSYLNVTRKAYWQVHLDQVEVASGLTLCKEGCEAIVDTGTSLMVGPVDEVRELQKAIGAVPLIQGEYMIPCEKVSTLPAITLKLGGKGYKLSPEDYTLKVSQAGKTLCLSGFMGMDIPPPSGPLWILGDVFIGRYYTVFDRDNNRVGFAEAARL

Row | Binder | DSF - ΔTm of proCTSD (1 μM proCTSD with 2 μM PGRN, pH 7.4) (pro-cathepsin D) [°C] | Kd (full-length progranulin) [nM]
1 | B1 | -0.41 | 
2 | B2 |  | 950
